[ ]: non-standard residue; d: D form.
T1: Bovine lung-derived ANP receptor (bovine)
T1 chain: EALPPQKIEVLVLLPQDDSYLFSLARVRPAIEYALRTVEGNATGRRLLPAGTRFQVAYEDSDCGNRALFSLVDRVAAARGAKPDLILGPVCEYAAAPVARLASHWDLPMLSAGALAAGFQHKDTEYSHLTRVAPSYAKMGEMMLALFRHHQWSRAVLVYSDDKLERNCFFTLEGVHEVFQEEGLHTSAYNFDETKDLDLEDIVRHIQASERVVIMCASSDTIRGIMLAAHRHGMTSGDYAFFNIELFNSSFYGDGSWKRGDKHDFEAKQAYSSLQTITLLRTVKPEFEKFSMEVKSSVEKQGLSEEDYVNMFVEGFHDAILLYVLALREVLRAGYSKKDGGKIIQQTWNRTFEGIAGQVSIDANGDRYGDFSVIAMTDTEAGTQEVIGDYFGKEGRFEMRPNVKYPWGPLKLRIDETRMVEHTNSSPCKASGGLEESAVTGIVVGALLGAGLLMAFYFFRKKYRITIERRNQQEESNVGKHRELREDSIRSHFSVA


What was measured:
[1] = target: T1, Bovine lung-derived ANP receptor; experiment: displacement of 125I-rat ANP from bovine lung membrane fraction, filter binding
[2] = target: T2, protein-farnesyltransferase derived from bovine brains (bovine, UniProt P29702 2-375; P49355 1-437); experiment: cell-based or functional assay
[3] = target: T2, protein-farnesyltransferase derived …; experiment: cell-based or functional assay; remark: listed apart in the source

Binder | IC50 [1] [nM] | IC50 (µM), transfer of [3H]-farnesyl diphosphate to Ras protein (v-Ki-Ras p21) [2] [µM] | IC50 (µM), intake of [3H]-farnesyl diphosphate by biotin-lamin-B peptide (SPA enzyme assay kit) [3] [µM]
H-AFGGRIDRIGAA-NH2 [Compound (h), H-Ala-Phe-Gly-Gly-Arg-Ile-Asp-Arg-Ile-Gly-Ala-Ala-NH2] | 2.5 |  | 
H-SSGCVLS-OH [Compound (e), H-Ser-Ser-Gly-Cys-Val-Leu-Ser-OH] |  | 10 | 
H-FGG[dR]IDRI-NH2 (SMILES CC[C@H](C)[C@H](NC(=O)[C@H](CCCNC(=N)N)NC(=O)[C@H](CC(=O)O)NC(=O)[C@@H](NC(=O)[C@@H](CCCNC(=N)N)NC(=O)CNC(=O)CNC(=O)[C@@H](N)Cc1ccccc1)[C@@H](C)CC)C(N)=O) [Compound (i), H-Phe-Gly-Gly-D-Arg-Ile-Asp-Arg-Ile-NH2] | 210 |  | 
H-SMGLPCIFM-OH [Compound (f), H-Ser-Met-Gly-Leu-Pro-Cys-Ile-Phe-Met-OH] |  | 21 | 
H-FGGRIDRI-NH2 [Compound (g), H-Phe-Gly-Gly-Arg-Ile-Asp-Arg-Ile-NH2] | 3.5 |  | 
H-SMGLPCVVM-OH [Compound (d), H-Ser-Met-Gly-Leu-Pro-Cys-Val-Val-Met-OH] |  | 1.6 | 1.2
